The target in experiment [1] is T1, human CD3 expressed on cells (human, UniProt P07766 23-207; P04234 22-171; P09693 23-182).
T1 construct: whole, on cells; CD3 complex on Jurkat cells and on human primary T cells
Nature of the experiment: flow cytometry, 25 nM. Summed up:
(§1)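 Flow cytometric binding was measured after cells were incubated with antibody (25 nM, PBS+2% FBS) at 4° C for 30 minutes. Signals were normalized to isotype to yield FOI, with ≥10 scored positive.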

The target in experiment [2] is T2, cynomolgus monkey CD3 expressed on primary T cells (cynomolgus monkey, UniProt Q95LI5 22-198; Q95LI8 22-171; Q95LI7 23-181).
T2 construct: whole, on cells; CD3 complex on purified cynomolgus monkey T cells; also called cyno CD3
T2 sequence (Q95LI5 22-198, chain 1 of 3): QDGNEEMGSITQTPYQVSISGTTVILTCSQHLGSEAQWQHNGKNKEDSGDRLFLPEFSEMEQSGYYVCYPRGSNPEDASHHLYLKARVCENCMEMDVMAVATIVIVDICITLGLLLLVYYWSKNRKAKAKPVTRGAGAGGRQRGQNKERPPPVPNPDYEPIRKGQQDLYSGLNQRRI
T2 sequence (Q95LI8 22-171, chain 2 of 3): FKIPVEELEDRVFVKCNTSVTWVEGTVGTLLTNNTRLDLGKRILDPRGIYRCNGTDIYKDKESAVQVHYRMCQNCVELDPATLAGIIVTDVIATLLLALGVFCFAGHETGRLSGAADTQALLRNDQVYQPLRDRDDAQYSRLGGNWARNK
T2 sequence (Q95LI7 23-181, chain 3 of 3): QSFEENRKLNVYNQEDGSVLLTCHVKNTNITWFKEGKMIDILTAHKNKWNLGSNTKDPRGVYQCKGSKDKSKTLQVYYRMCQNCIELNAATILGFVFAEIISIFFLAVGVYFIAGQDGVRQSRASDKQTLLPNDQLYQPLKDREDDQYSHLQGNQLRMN
Nature of the experiment: flow cytometry, 25 nM, cyno primary T cells. The gist of the method: as §1
Background: A flow cytometer gives signals particle by particle.

Positions count from the first letter of the chain named.

T1 sequence (P07766 23-207, chain 1 of 3): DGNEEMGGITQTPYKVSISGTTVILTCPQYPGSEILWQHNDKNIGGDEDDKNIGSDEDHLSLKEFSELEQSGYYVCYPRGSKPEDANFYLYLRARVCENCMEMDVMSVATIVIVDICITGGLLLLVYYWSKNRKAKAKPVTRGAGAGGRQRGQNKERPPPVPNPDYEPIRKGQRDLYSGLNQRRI
T1 sequence (P04234 22-171, chain 2 of 3): as the sequence (Q95LI8 22-171, chain 2 of 3) above, with V5I, K15N, V20I, T32S, N33D, N34I, A64T, N74S, L83V, R141H counted along it
T1 sequence (P09693 23-182, chain 3 of 3): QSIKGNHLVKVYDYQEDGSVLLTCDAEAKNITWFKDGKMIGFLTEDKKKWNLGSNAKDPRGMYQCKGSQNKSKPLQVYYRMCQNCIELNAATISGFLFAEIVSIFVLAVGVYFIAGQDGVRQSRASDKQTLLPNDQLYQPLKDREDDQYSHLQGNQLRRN

B1: mAb 128 (antibody, V domains shown)
VH: EVQLVESGGGLVQPGRSLRLSCAASGFTFDDYTMHWVRQAPGKGLEWVSGISWNSGSIGYADSVKGRFTISRDNAKNSLYLQMNSLRAEDTALYYCAKDSSGYGYYYYYSMDVWGKGTTVTVSS
VL: EIVMTQSPATLSVSPGERATLSCRASQSVSSNLAWYQQKPGQAPRLLIYGASTRATGIPARFSGSGSGTEFTLTISSLQSEDFAVYYCQLYYNWPHFGQGTRLAIK
Regarding B1, in experiment [1], the “Human primary T Cell Binding (FOI)” value is 101 FOI and the “Jurkat Cell Binding (FOI)” value was 97.1 FOI. For the same molecule, the binding result in experiment [2] is recorded as “no binding (tested: FOI >=10 = positive)”.

B2: mAb 119 (antibody, V domains shown)
VH: B1 VH with A97S, Y107L, Y108N, M111L
VL: EIVMTQSPATLSVSPGERATLSCRASQSVSNLAWYQQKPGQAPRLLIYGASTRATGIPARFSGSGSGTEFTLTISSLQSEDFAVYYCQQYNNWPHFGQGTRLQIK
Take B2: in experiment [1], the “Human primary T Cell Binding (FOI)” value amounted to 95.4 FOI and the “Jurkat Cell Binding (FOI)” value worked out at 90.4 FOI. Moreover, in experiment [2], the binding result is “no binding (tested: FOI >=10 = positive)”.

B3: mAb 126 (antibody, V domains shown)
VH: B1 VH with D30N, A40V, G59D, S110Y
VL: B1 VL with S31I, Y92H, A104E
Turning to B3, in experiment [1], the “Human primary T Cell Binding (FOI)” value is 97.6 FOI and the “Jurkat Cell Binding (FOI)” value is 97 FOI. For the same molecule, the binding result in experiment [2] is “no binding (tested: FOI >=10 = positive)”.

B4: mAb 162 (antibody, V domains shown)
VH: B1 VH with D31N, T33A, Q82E, M83L, Y108N, S110Y
VL: B1 VL with S30R, R61K, L90Y, A104E
B4: in experiment [1], the “Human primary T Cell Binding (FOI)” value is 160 FOI and the “Jurkat Cell Binding (FOI)” value was 111 FOI. Moreover, in experiment [2], the binding result is “no binding (tested: FOI >=10 = positive)”.

B5: mAb 160 (antibody, V domains shown)
VH: B1 VH with A24V, D30N, A40V, Y95F, Y105H, S110Y, K116R
VL: B1 VL with S30R, S31K, Y92N, A104E
As to B5, in experiment [1], the “Human primary T Cell Binding (FOI)” value amounted to 169 FOI and the “Jurkat Cell Binding (FOI)” value came to 115 FOI. The binding result in experiment [2] was “no binding (tested: FOI >=10 = positive)”.

B6: mAb 118 (antibody, V domains shown)
VH: B1 VH with A97S, Y107L, Y108N, M111L
VL: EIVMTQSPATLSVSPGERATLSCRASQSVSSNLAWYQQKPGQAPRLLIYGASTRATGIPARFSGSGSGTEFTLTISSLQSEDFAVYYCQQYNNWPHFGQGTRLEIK
As for B6, in experiment [1], the “Human primary T Cell Binding (FOI)” value is 84.7 FOI and the “Jurkat Cell Binding (FOI)” value is 83.8 FOI. The binding result in experiment [2] was “no binding (tested: FOI >=10 = positive)”.

B7: mAb 159 (antibody, V domains shown)
VH: B1 VH with D30N, D31G, A40V, I58V, Y80F, Y105H, S110Y
VL: B1 VL with S30R, S31N, V85L, Y92N, A104E
For B7, in experiment [1], the “Human primary T Cell Binding (FOI)” value was found to be 171 FOI and the “Jurkat Cell Binding (FOI)” value stood at 125 FOI. Also, the binding result in experiment [2] is reported as “no binding (tested: FOI >=10 = positive)”.

B8: mAb 123 (antibody, V domains shown)
VH: DVQLVESGGGTVKTGGSLRLSCVASGFSFKKAWMNWVRQAPGKGLEWVGRIKKNSDDGTADYAAPVKGRFTISRDDSKRTLFLQMNSLQTEDTAVYYCTTLDSSSWFVGYYYMDVWGKGTTVTVSS
VL: DIQMTQSPSSVSASVGDRVIITCRASQDINNWLAWYQQKPGKAPKLLIYTASSLQSGVPSRFSGSGSVSDFTLTIDSLQPEDFATYYCQQAHSLPITFGQGTRLEIK
For B8, in experiment [1], the “Human primary T Cell Binding (FOI)” value amounted to 171 FOI and the “Jurkat Cell Binding (FOI)” value worked out at 159 FOI. The binding result in experiment [2] was “no binding (tested: FOI >=10 = positive)”.

B9: mAb 130 (antibody, V domains shown)
VH: EVQLVESGGGLVKTGGSLRLSCVASGFSFKKAWMNWVRQAPGKGLEWVGRIKRNSDGGATDYAAPVKDRFTLSRDDSKNTLYLQMNSLKTEDTAVYYCTTLDSSSWYVGYYYMDVWGKGTTVTVSS
VL: B8 VL with Q3H, V15L, I20T, I21F, K39R, V68G, S69T, D76S, E105G
For B9, in experiment [1], the “Human primary T Cell Binding (FOI)” value stood at 165 FOI and the “Jurkat Cell Binding (FOI)” value stood at 155 FOI. In experiment [2], the binding result is on record as “no binding (tested: FOI >=10 = positive)”.

B10: mAb 127 (antibody, V domains shown)
VH: B9 VH with L18H, A59T, D68G, T71I
VL: B8 VL with I20T, L46I, S53N, V68G, S69T, D76S, S77T, Y87F, S93G
As to B10, in experiment [1], the “Human primary T Cell Binding (FOI)” value stood at 172 FOI and the “Jurkat Cell Binding (FOI)” value stood at 155 FOI. The binding result in experiment [2] is on record as “no binding (tested: FOI >=10 = positive)”.

B11: mAb 131 (antibody, V domains shown)
VH: B9 VH with L20I, S55T, A59T, T60I, D68G, T71S, Y82F, Y97F, W106Y
VL: B8 VL with Q3H, I20T, V68G, S69T, D76S, Y87F, E105G
B11: in experiment [1], the “Human primary T Cell Binding (FOI)” value was determined as 171 FOI and the “Jurkat Cell Binding (FOI)” value came out at 155 FOI. Besides, the binding result in experiment [2] is given as “no binding (tested: FOI >=10 = positive)”.

B12: mAb 169 (antibody, V domains shown)
VH: B9 VH with S55T, A59T, T60A, D68G, N79K, Y82F, W106Y
VL: B8 VL with V68G, S69T, T72I, D76G
Regarding B12, in experiment [1], the “Human primary T Cell Binding (FOI)” value stood at 264 FOI and the “Jurkat Cell Binding (FOI)” value came to 173 FOI. Also, in experiment [2], the binding result is given as “no binding (tested: FOI >=10 = positive)”.

B13: mAb 125 (antibody, V domains shown)
VH: B9 VH with S55T, A59T, T60A, D68G, N79K, W106R
VL: B8 VL with A43V, V68G, S69T, D76G, S77T, E105D
Take B13: in experiment [1], the “Human primary T Cell Binding (FOI)” value was found to be 180 FOI and the “Jurkat Cell Binding (FOI)” value is 185 FOI. Also, the binding result in experiment [2] is “no binding (tested: FOI >=10 = positive)”.

B14: mAb 155 (antibody, V domains shown)
VH: B9 VH with S55T, A59T, T60A, D68G, N79K, Y82F, W106Y
VL: B8 VL with V68G, S69T, D76G, T97S, E105D
In the case of B14, in experiment [1], the “Human primary T Cell Binding (FOI)” value stood at 274 FOI and the “Jurkat Cell Binding (FOI)” value is 163 FOI. In addition, the binding result in experiment [2] is on record as “no binding (tested: FOI >=10 = positive)”.

B15: mAb 166 (antibody, V domains shown)
VH: B9 VH with K43R, S55T, A59T, D68G, T80M, W106L
VL: B8 VL with I20T, V68G, S69T, D76S, Y87F, K107T
Turning to B15, in experiment [1], the “Human primary T Cell Binding (FOI)” value was determined as 266 FOI and the “Jurkat Cell Binding (FOI)” value was found to be 159 FOI. Further, in experiment [2], the binding result is on record as “no binding (tested: FOI >=10 = positive)”.

B16: mAb 157 (antibody, V domains shown)
VH: B9 VH with N54T, S55A, D68G
VL: B8 VL with Q3H, S7A, I20T, I21F, V68G, S69T, D76S, E105G
Turning to B16, in experiment [1], the “Human primary T Cell Binding (FOI)” value was 265 FOI and the “Jurkat Cell Binding (FOI)” value came out at 163 FOI. In experiment [2], the binding result is listed as “no binding (tested: FOI >=10 = positive)”.

B17: mAb 164 (antibody, V domains shown)
VH: B9 VH with S55T, A59T, T60A, D68G, N79K, Y82F, W106Y
VL: B8 VL with I20T, N30K, V68G, S69T, D76G
Take B17: in experiment [1], the “Human primary T Cell Binding (FOI)” value came out at 237 FOI and the “Jurkat Cell Binding (FOI)” value came to 137 FOI. For the same molecule, the binding result in experiment [2] is “no binding (tested: FOI >=10 = positive)”.

B18: mAb 132 (antibody, V domains shown)
VH: B8 VH with D57G, R79K, F82Y, F107Y
VL: B8 VL with K42I, D76G
On to B18, for which, in experiment [1], the “Human primary T Cell Binding (FOI)” value came out at 164 FOI and the “Jurkat Cell Binding (FOI)” value amounted to 157 FOI. The binding result in experiment [2] is listed as “no binding (tested: FOI >=10 = positive)”.

B19: mAb 156 (antibody, V domains shown)
VH: B9 VH with S55T, A59T, T60A, D68G, N79K, Y82F, W106Y
VL: B8 VL with P40A, V68G, S69T, D76G
Regarding B19, in experiment [1], the “Human primary T Cell Binding (FOI)” value was found to be 243 FOI and the “Jurkat Cell Binding (FOI)” value stood at 171 FOI. The binding result in experiment [2] was “no binding (tested: FOI >=10 = positive)”.

B20: mAb 165 (antibody, V domains shown)
VH: B9 VH with S55T, A59T, T60A, D68G, N79R, W106R
VL: B8 VL with A43V, V68G, S69T, D76G
Turning to B20, in experiment [1], the “Human primary T Cell Binding (FOI)” value was 241 FOI and the “Jurkat Cell Binding (FOI)” value stood at 154 FOI. Further, the binding result in experiment [2] is given as “no binding (tested: FOI >=10 = positive)”.

B21: mAb 133 (antibody, V domains shown)
VH: B9 VH with N35S, S55T, A59T, T60A, D68G, N79K, Y82F, T93S, T99V, W106Y
VL: B8 VL with I20S, V68G, S69T, D76G
In the case of B21, in experiment [1], the “Human primary T Cell Binding (FOI)” value amounted to 169 FOI and the “Jurkat Cell Binding (FOI)” value was found to be 161 FOI. Further, the binding result in experiment [2] is recorded as “no binding (tested: FOI >=10 = positive)”.

B22: mAb 163 (antibody, V domains shown)
VH: B9 VH with A40V, S55T, A59T, T60A, D68G, N79K, Y82F, W106Y
VL: B8 VL with V68G, S69T, D76G
On to B22, for which, in experiment [1], the “Human primary T Cell Binding (FOI)” value was found to be 278 FOI and the “Jurkat Cell Binding (FOI)” value came to 118 FOI. For the same molecule, the binding result in experiment [2] is “no binding (tested: FOI >=10 = positive)”.

B23: mAb 129 (antibody, V domains shown)
VH: B9 VH with G10D, S55T
VL: DIHMTQSPSSVSASLGDRVTFTCRASQDINNWLAWYQQKPGKAPRLLIYTASSLQSGVPSRFSGSGSGTDFTLTISSLQPDDFATYYCQQAHSLPITFGQGTRLGIE
In the case of B23, in experiment [1], the “Human primary T Cell Binding (FOI)” value was 169 FOI and the “Jurkat Cell Binding (FOI)” value was determined as 157 FOI. In experiment [2], the binding result was “no binding (tested: FOI >=10 = positive)”.

Source of the values: patent US20230295310A1 (ABCELLERA BIOLOGICS, published 2023).
